Patent US20240091361A1, “T CELL RECEPTORS TARGETING RAS MUTATIONS AND USES THEREOF” (MEMORIAL SLOAN-KETTERING CANCER CENTER, priority 2021, published 2024)

T1: KRAS wild type (10-mer) peptide on HLA-A*11:01 (human)
T1 peptide: VVVGAGGVGK

T2: GEM (also listed as SEQ ID NOs 82, 106, 130, 141) peptide on HLA-A*11:01 (human)
T2 peptide: AVFGAGGVGK

T3: KRAS G12D (10-mer; the same sequence in NRAS G12D and HRAS G12D) peptide on HLA-A*11:01 (human)
T3 peptide: VVVGADGVGK


What was measured:
[1] = target: T4, peptide-pulsed HLA-A*11:01+ COS-7 target cells (Homo sapiens, UniProt P04439, A114D/D185E/E176A/F33Y/L180Q/S129P/T187R); experiment: Cross-reactivity: IFN-γ ELISA after coculture of RAS TCR-T cells with peptide-pulsed HLA-A*11:01+ COS-7 cells; type: cell-based; settings: peptides of Tables 7-11 at 1 μM, E:T 1:1, 24 h; background threshold 50 pg/mL
T4 construct: Target COS-7 cells were electroporated with mRNA encoding full-length human HLA*11:01; expressed in transfected cells; host or cells: COS-7 cells electroporated with mRNA
Description: Next, studies were conducted to determine the cross-reactivity potential of RAS-specific TCRs. Individual TCR peptide motifs were scanned against the human proteome to identify potential cross-reactive sequences. Target COS-7 cells were electroporated with mRNA encoding full-length human HLA*11:01 and incubated at 37 degrees overnight to allow HLA-A*11:01 protein expression. […]. The cells were then pulsed with an individual peptide corresponding to its RAS-specific TCR (see Tables 7-11) at a concentration of 1 μM; finally, wild-type (WT) and mutated RAS peptides were included as functional controls. RAS TCR-T cells, expressing individual RAS TCRs 1-5, were added at an E:T ratio of 1:1 and incubated at 37 degrees for 24 h. Supernatants were harvested from coculture wells to perform an ELISA assay to determine levels of IFN-γ production.

[2] = target: T1, KRAS wild type (10-mer) peptide on …; experiment: cytokine release
[3] = target: T2, GEM (also listed as SEQ ID NOs 82, 106, …); experiment: cytokine release
[4] = target: T3, KRAS G12D (10-mer; the same sequence in …); experiment: multimer staining

reactivity (IFN-γ) to alternative human peptide sequences possessing the recognition motif [1]	Molecule	further results
did not exhibit reactivity	TCR 2: T cell receptor targeting RAS G12D peptide; α chain SEQ ID NO: 22, β chain SEQ ID NO: 23 (protein, listed as Homo sapiens, Description of sequence: Full alpha-chain; Description of sequence: Full beta-chain) alpha: MTRVSLLWAVVVSTCLESGMAQTVTQSQPEMSVQEAETVTLSCTYDTSENNYYLFWYKQPPSRQMILVIRQEAYKQQNATENRFSVNFQKAAKSFSLKISDSQLGDTAMYFCAFMYPSQGGSEKLVFGKGMKLTVNPNIQNPDPAVYQLRDSKSSDKSVCLFTDFDSQTNVSQSKDSDVYITDKTVLDMRSMDFKSNSAVAWSNKSDFACANAFNNSIIPEDTFFPSPESSCDVKLVEKSFETDTNLNFQNLSVIGFRILLLKVAGFNLLMTLRLWSS beta: MGPGLLCWVLLCLLGAGSVETGVTQSPTHLIKTRGQQVTLRCSSQSGHNTVSWYQQALGQGPQFIFQYYREEENGRGNFPPRFSGLQFPNYSSELNVNALELDDSALYLCASSSPGFRSYGYTFGSGTRLTVVEDLNKVFPPEVAVFEPSEAEISHTQKATLVCLATGFFPDHVELSWWVNGKEVHSGVSTDPQPLKEQPALNDSRYCLSSRLRVSATFWQNPRNHFRCQVQFYGLSENDEWTQDRAKPVTQIVSAEAWGRADCGFTSVSYQQGVLSATILYEILLGKATLYAVLVSALVLMAMVKRKDF	–
did not exhibit reactivity	TCR 4: T cell receptor targeting RAS G12D peptide; α chain SEQ ID NO: 41, β chain SEQ ID NO: 42 (protein, listed as Homo sapiens, Description of sequence: Full alpha-chain; Description of sequence: Full beta-chain) alpha: MMKSLRVLLVILWLQLSWVWSQQKEVEQDPGPLSVPEGAIVSLNCTYSNSAFQYFMWYRQYSRKGPELLMYTYSSGNKEDGRFTAQVDKSSKYISLFIRDSQPSDSATYLCAMGALNSGAGSYQLTFGKGTKLSVIPNIQNPDPAVYQLRDSKSSDKSVCLFTDFDSQTNVSQSKDSDVYITDKTVLDMRSMDFKSNSAVAWSNKSDFACANAFNNSIIPEDTFFPSPESSCDVKLVEKSFETDTNLNFQNLSVIGFRILLLKVAGFNLLMTLRLWSS beta: MGSRLLCWVLLCLLGAGPVKAGVTQTPRYLIKTRGQQVTLSCSPISGHRSVSWYQQTPGQGLQFLFEYFSETQRNKGNFPGRFSGRQFSNSRSEMNVSTLELGDSALYLCASSLSSGTGTEAFFGQGTRLTVVEDLNKVFPPEVAVFEPSEAEISHTQKATLVCLATGFFPDHVELSWWVNGKEVHSGVSTDPQPLKEQPALNDSRYCLSSRLRVSATFWQNPRNHFRCQVQFYGLSENDEWTQDRAKPVTQIVSAEAWGRADCGFTSVSYQQGVLSATILYEILLGKATLYAVLVSALVLMAMVKRKDF	–
did not exhibit reactivity	TCR 5: T cell receptor targeting RAS G12D peptide; α chain SEQ ID NO: 50, β chain SEQ ID NO: 51 (protein, listed as Homo sapiens, Description of sequence: Full alpha-chain; Description of sequence: Full beta-chain) alpha: MKTFAGFSFLFLWLQLDCMSRGEDVEQSLFLSVREGDSSVINCTYTDSSSTYLYWYKQEPGAGLQLLTYIFSNMDMKQDQRLTVLLNKKDKHLSLRIADTQTGDSAIYFCAERDAGNNRKLIWGLGTSLAVNPNIQNPDPAVYQLRDSKSSDKSVCLFTDFDSQTNVSQSKDSDVYITDKTVLDMRSMDFKSNSAVAWSNKSDFACANAFNNSIIPEDTFFPSPESSCDVKLVEKSFETDTNLNFQNLSVIGFRILLLKVAGFNLLMTLRLWSS beta: MGTRLLCWVVLGFLGTDHTGAGVSQSPRYKVAKRGQDVALRCDPISGHVSLFWYQQALGQGPEFLTYFQNEAQLDKSGLPSDRFFAERPEGSVSTLKIQRTQQEDSAVYLCASSLEGGDTQYFGPGTRLTVLEDLKNVFPPEVAVFEPSEAEISHTQKATLVCLATGFYPDHVELSWWVNGKEVHSGVSTDPQPLKEQPALNDSRYCLSSRLRVSATFWQNPRNHFRCQVQFYGLSENDEWTQDRAKPVTQIVSAEAWGRADCGFTSESYQQGVLSATILYEILLGKATLYAVLVSALVLMAMVKRKDSRG	–
did not exhibit reactivity	TCR 1: T cell receptor targeting RAS G12D peptide; α chain SEQ ID NO: 12, β chain SEQ ID NO: 13 (protein, listed as Homo sapiens, Description of sequence: Full alpha-chain; Description of sequence: Full beta-chain) alpha: MNYSPGLVSLILLLLGRTRGDSVTQMEGPVTLSEEAFLTINCTYTATGYPSLFWYVQYPGEGLQLLLKATKADDKGSNKGFEATYRKETTSFHLEKGSVQVSDSAVYFCALSDRVGGARLMFGDGTQLVVKPNIQNPDPAVYQLRDSKSSDKSVCLFTDFDSQTNVSQSKDSDVYITDKTVLDMRSMDFKSNSAVAWSNKSDFACANAFNNSIIPEDTFFPSPESSCDVKLVEKSFETDTNLNFQNLSVIGFRILLLKVAGFNLLMTLRLWSS beta: MTIRLLCYMGFYFLGAGLMEADIYQTPRYLVIGTGKKITLECSQTMGHDKMYWYQQDPGMELHLIHYSYGVNSTEKGDLSSESTVSRIRTEHFPLTLESARPSHTSQYLCASSEGLYNEQFFGPGTRLTVLEDLKNVFPPEVAVFEPSEAEISHTQKATLVCLATGFYPDHVELSWWVNGKEVHSGVSTDPQPLKEQPALNDSRYCLSSRLRVSATFWQNPRNHFRCQVQFYGLSENDEWTQDRAKPVTQIVSAEAWGRADCGFTSESYQQGVLSATILYEILLGKATLYAVLVSALVLMAMVKRKDSRG	–
–	TCR 1 (TCR, V domains shown) Valpha: GDSVTQMEGPVTLSEEAFLTINCTYTATGYPSLFWYVQYPGEGLQLLLKATKADDKGSNKGFEATYRKETTSFHLEKGSVQVSDSAVYFCALSDRVGGARLMFGDGTQLVVKP Vbeta: EADIYQTPRYLVIGTGKKITLECSQTMGHDKMYWYQQDPGMELHLIHYSYGVNSTEKGDLSSESTVSRIRTEHFPLTLESARPSHTSQYLCASSEGLYNEQFFGPGTRLTVL	binding result [2]: no recognition; binding result [3]: no recognition; binding result [4]: recognises

Molecule	reactivity (IFN-γ) to alternative human peptide sequences possessing the recognition motif [1]	further results
TCR 3: T cell receptor targeting RAS G12D peptide; α chain SEQ ID NO: 31, β chain SEQ ID NO: 32 (protein, listed as Homo sapiens, Description of sequence: Full alpha-chain; Description of sequence: Full beta-chain) alpha: MACPGFLWALVISTCLEFSMAQTVTQSQPEMSVQEAETVTLSCTYDTSESDYYLFWYKQPPSRQMILVIRQEAYKQQNATENRFSVNFQKAAKSFSLKISDSQLGDAAMYFCAYRSDGGATNKLIFGTGTLLAVQPNIQNPDPAVYQLRDSKSSDKSVCLFTDFDSQTNVSQSKDSDVYITDKTVLDMRSMDFKSNSAVAWSNKSDFACANAFNNSIIPEDTFFPSPESSCDVKLVEKSFETDTNLNFQNLSVIGFRILLLKVAGFNLLMTLRLWSS beta: MGPQLLGYVVLCLLGAGPLEAQVTQNPRYLITVTGKKLTVTCSQNMNHEYMSWYRQDPGLGLRQIYYSMNVEVTDKGDVPEGYKVSRKEKRNFPLILESPSPNQTSLYFCASSLGAGGYNSPLHFGNGTRLTVTEDLNKVFPPEVAVFEPSEAEISHTQKATLVCLATGFFPDHVELSWWVNGKEVHSGVSTDPQPLKEQPALNDSRYCLSSRLRVSATFWQNPRNHFRCQVQFYGLSENDEWTQDRAKPVTQIVSAEAWGRADCGFTSVSYQQGVLSATILYEILLGKATLYAVLVSALVLMAMVKRKDF	low level reactivity to a single alternative peptide	–
